Changes are numbered by the printed parent chain. Numbers in names are those of the source.
How the values were obtained:
[1] = target: the molecule itself; assay: crystal structure; RIP2K_(L294F) 5 mg/ml with 2 mM AMPPCP and 5 mM MgCl2; sitting drop, 20°C; P4(1)2(1)2, a dimer in the asymmetric unit; 2.0 Å
[2] = target: the molecule itself; assay: AUC; sedimentation velocity at increased protein concentration (RIP2K at 10 and 18 μM; range tested 4 to 18 μM); 42,000 r.p.m., 4°C; 20 mM Tris pH 7.5, 50 mM NaCl, 5% glycerol, 250 μM TCEP; oligomers beyond the dimer
[3] = target: the molecule itself; assay: AUC; sedimentation velocity at low protein concentration (3-5 μM); 42,000 r.p.m., 4°C; 20 mM Tris pH 7.5, 50 mM NaCl, 5% glycerol, 250 μM TCEP; monomer to dimer
[4] = target: the molecule itself; assay: native MS; 3-5 μM protein in 250 mM ammonium acetate with 1 mM DTT, nano-ESI Q-TOF; RIP2K_(D146N) as the staurosporine sample

B1: RIP2K_(L294F) (RIP2 kinase domain 1-300 with the spontaneous mutation L294F), crystallised with AMPPCP (domain or fragment)
chain: GAMAMNGEAICSALPTIPYHKLADLRYLSRGASGTVSSARHADWRVQVAVKHLHIHTPLLDSERKDVLREAEILHKARFSYILPILGICNEPEFLGIVTEYMPNGSLNELLHRKTEYPDVAWPLRFRILHEIALGVNYLHNMTPPLLHHDLKTQNILLDNEFHVKIADFGLSKWRMMSLSQSRSSKSAPEGGTIIYMPPENYEPGQKSRASIKHDIYSYAVITWEVLSRKQPFEDVTNPLQIMYSVSQGHRPVINEESLPYDIPHRARMISLIESGWAQNPDERPSFLKCLIELEPVFRTFEEI
notes: The methods say the AMPPCP crystals came from RIP2K_(L294F); the results call this structure wild-type RIP2K; no density for the phosphorylation sites; also called RIPK_(L294F); RIP2K-AMPPCP; not shown: His-tag, N-terminal, cleaved
- binding result [1]: binds

B2: RIP2K_(K47R) (RIP2 kinase domain 1-300, kinase-dead mutant K47R, not phosphorylated) (domain or fragment, UniProt O43353 1-300, looked up)
chain: MNGEAICSALPTIPYHKLADLRYLSRGASGTVSSARHADWRVQVAVRHLHIHTPLLDSERKDVLREAEILHKARFSYILPILGICNEPEFLGIVTEYMPNGSLNELLHRKTEYPDVAWPLRFRILHEIALGVNYLHNMTPPLLHHDLKTQNILLDNEFHVKIADFGLSKWRMMSLSQSRSSKSAPEGGTIIYMPPENYEPGQKSRASIKHDIYSYAVITWEVLSRKQPFEDVTNPLQIMYSVSQGHRPVINEESLPYDIPHRARMISLIESGWAQNPDERPSFLKCLIELEPVLRTFEEI
notes: Not phosphorylated by mass spectrometry; also called Rip2_(K47R)
- stoichiometry N [2]: 4
- stoichiometry N [3]: 2

B3: RIP2K_(D146N) (RIP2 kinase domain 1-300, kinase-dead mutant D146N, not phosphorylated) (domain or fragment, UniProt O43353 1-300, looked up)
chain: B2 chain with R47K, D146N
notes: Not phosphorylated by mass spectrometry; also called RIP2K_(D146N)-STAU; RIP2KD146N-STAU; source: mixed with 0.5 mM staurosporine during dialysis
- stoichiometry N [4]: 2

B4: RIP2K (kinase domain of Receptor Interacting protein kinase 2, residues 1-300), wild type, phosphorylated (domain or fragment, UniProt O43353 1-300, looked up)
chain: B2 chain with R47K
modifications: auto-phosphorylated in vitro: phosphoserine at 174, 176, 178 and at 180 or 181 (a maximum of five phosphorylation sites)
notes: also called WT RIP2K; RIP2K_(1-300); source: de-phosphorylated with lambda phosphatase and re-phosphorylated before native MS and AUC
- stoichiometry N [3]: 2
